Results from patent US20250381289A1 (Genmab, published 2025).

Legend:
[1] = molecular target: T1, cMET on EGFR and cMET co-expressed tumor cell lines (UniProt P08581 25-1390, limits assumed); experiment: flow cytometry, MKN-45 cells
T1 construct: whole, on cells

[2] = molecular target: T1, cMET on EGFR and cMET co-expressed …; experiment: flow cytometry, MKN-45 cells; remark: listed apart in the source
human cMET-Fc = molecular target: T2, human cMET-Fc (human, UniProt P08581 25-932); experiment: blocking ELISA: coated human cMET-Fc, antibody titrated, then human HGF-His (blocked ligand), anti-His-HRP
T2 construct: not shown: Fc part, not described

[3] = molecular target: T3, EGFR on EGFR and cMET co-expressed tumor cell lines (UniProt P00533 25-1210, limits assumed); experiment: flow cytometry, EBC-1 cells (co-express EGFR and cMET; both arms contribute)
T3 construct: whole, on cells

[4] = molecular target: T1, cMET on EGFR and cMET co-expressed …; experiment: as above
Human EGFR = molecular target: T4, Human EGFR (human, UniProt P00533); experiment: ELISA, plate coated with 100 ng/well human EGFR recombinant protein, HRP anti-human Fc, OD450
T4 construct: recombinant protein coated on the ELISA plate; also called human EGFR recombinant protein

Human cMET = molecular target: T5, Human cMET; experiment: ELISA, plate coated with 100 ng/well human cMET recombinant protein, HRP anti-human Fc, OD450
T5 construct: also called human cMET recombinant protein
T5 chain: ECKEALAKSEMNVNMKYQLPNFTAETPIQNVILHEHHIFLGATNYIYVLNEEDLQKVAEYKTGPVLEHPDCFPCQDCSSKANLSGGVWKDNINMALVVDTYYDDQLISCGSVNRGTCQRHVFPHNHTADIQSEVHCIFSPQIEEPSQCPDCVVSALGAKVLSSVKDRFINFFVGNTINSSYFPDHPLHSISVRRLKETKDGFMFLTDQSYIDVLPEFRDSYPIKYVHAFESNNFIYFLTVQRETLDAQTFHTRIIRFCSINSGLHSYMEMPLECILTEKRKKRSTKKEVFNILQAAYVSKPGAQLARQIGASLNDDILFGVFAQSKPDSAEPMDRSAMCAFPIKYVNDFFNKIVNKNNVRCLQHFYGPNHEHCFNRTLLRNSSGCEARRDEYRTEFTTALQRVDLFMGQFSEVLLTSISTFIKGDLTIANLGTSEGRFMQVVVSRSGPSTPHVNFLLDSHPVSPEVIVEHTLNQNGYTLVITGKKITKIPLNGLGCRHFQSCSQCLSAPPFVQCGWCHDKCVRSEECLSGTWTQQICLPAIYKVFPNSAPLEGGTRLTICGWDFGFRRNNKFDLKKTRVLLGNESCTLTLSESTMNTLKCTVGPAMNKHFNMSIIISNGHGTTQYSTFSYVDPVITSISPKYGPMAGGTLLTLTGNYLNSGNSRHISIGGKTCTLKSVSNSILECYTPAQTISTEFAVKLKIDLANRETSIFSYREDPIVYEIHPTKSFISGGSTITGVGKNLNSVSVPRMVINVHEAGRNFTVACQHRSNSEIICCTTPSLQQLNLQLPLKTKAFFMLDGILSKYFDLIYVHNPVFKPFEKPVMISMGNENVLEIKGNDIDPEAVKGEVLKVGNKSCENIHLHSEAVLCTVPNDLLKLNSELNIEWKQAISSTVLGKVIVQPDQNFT

[5] = molecular target: T3, EGFR on EGFR and cMET co-expressed …; experiment: flow cytometry on EBC-1 cells (co-express EGFR and cMET), PE anti-human Fc; signal of the whole bispecific, not resolved by arm
[6] = molecular target: T1, cMET on EGFR and cMET co-expressed …; experiment: as above
[7] = molecular target: T3, EGFR on EGFR and cMET co-expressed …; experiment: flow cytometry on SNU-5 cells (co-express EGFR and cMET), PE anti-human Fc; signal of the whole bispecific, not resolved by arm
[8] = molecular target: T1, cMET on EGFR and cMET co-expressed …; experiment: as above
[9] = molecular target: T3, EGFR on EGFR and cMET co-expressed …; experiment: flow cytometry on CAL-27 cells (co-express EGFR and cMET), PE anti-human Fc; signal of the whole bispecific, not resolved by arm
[10] = molecular target: T1, cMET on EGFR and cMET co-expressed …; experiment: as above
[11] = molecular target: T1, cMET on EGFR and cMET co-expressed …; experiment: flow cytometry, MKN-45 cells; remark: listed apart in the source
[12] = molecular target: T1, cMET on EGFR and cMET co-expressed …; experiment: flow cytometry, NCI-H441 cells
[13] = molecular target: T1, cMET on EGFR and cMET co-expressed …; experiment: flow cytometry, NCI-H1975 cells

B1: Telisotuzumab (antibody, V domains shown)
VH: QVQLVQSGAEVKKPGASVKVSCKASGYIFTAYTMHWVRQAPGQGLEWMGWIKPNNGLANYAQKFQGRVTMTRDTSISTAYMELSRLRSDDTAVYYCARSEITTEFDYWGQGTLVTVSS
VL: DIVMTQSPDSLAVSLGERATINCKSSESVDSYANSFLHWYQQKPGQPPKLLIYRASTRESGVPDRFSGSGSGTDFTLTISSLQAEDVAVYYCQQSKEDPLTFGGGTKVEIK
With B1 the “EC50 (read off the curve)” value [1] was ~0.8 nM, the “EC50 (read off the curve)” value [2] was ~1 nM and the “IC50 (read off the curve)” value (human cMET-Fc) was ~1 nM.

B2: Bsab 44 (bispecific antibody, human IgG1, kappa, L234A L235A)
anti EGFR knob chain (scFab): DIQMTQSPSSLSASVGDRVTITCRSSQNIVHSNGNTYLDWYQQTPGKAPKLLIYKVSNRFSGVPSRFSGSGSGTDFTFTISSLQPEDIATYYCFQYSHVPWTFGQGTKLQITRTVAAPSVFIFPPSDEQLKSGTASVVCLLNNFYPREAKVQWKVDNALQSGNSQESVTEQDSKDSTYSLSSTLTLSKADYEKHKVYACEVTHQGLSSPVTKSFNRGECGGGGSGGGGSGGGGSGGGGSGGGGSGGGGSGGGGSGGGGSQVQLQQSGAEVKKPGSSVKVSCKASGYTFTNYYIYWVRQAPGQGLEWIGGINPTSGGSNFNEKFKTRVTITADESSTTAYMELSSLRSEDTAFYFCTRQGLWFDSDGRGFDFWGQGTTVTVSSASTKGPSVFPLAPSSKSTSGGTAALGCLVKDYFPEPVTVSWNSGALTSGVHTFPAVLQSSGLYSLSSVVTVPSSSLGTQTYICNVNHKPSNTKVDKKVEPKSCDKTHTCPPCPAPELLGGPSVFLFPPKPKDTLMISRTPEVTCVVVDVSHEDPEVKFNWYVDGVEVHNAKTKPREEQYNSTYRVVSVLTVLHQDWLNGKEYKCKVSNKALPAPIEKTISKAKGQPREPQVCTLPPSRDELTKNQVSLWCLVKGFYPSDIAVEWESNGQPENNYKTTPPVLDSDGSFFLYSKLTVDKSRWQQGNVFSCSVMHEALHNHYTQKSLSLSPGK
anti cMET hole chain (scFab): DIQMTQSPSSLSASVGDRVTITCKSSQSLLYTSSQKNYLAWYQQKPGKAPKLLIYWASTRESGVPSRFSGSGSGTDFTLTISSLQPEDFATYYCQQYYAYPWTFGQGTKVEIKRTVAAPSVFIFPPSDEQLKSGTASVVCLLNNFYPREAKVQWKVDNALQSGNSQESVTEQDSKDSTYSLSSTLTLSKADYEKHKVYACEVTHQGLSSPVTKSFNRGECGGGGSGGGGSGGGGSGGGGSGGGGSGGGGSGGGGSGGGGSEVQLVESGGGLVQPGGSLRLSCAASGYTFTSYWLHWVRQAPGKCLEWVGMIDPSNSDTRFNPNFKDRFTISADTSKNTAYLQMNSLRAEDTAVYYCATYRSYVTPLDYWGQGTLVTVSSASTKGPSVFPLAPSSKSTSGGTAALGCLVKDYFPEPVTVSWNSGALTSGVHTFPAVLQSSGLYSLSSVVTVPSSSLGTQTYICNVNHKPSNTKVDKKVEPKSCDKTHTCPPCPAPEAAGGPSVFLFPPKPKDTLMISRTPEVTCVVVDVSHEDPEVKFNWYVDGVEVHNAKTKPREEQYNSTYRVVSVLTVLHQDWLNGKEYKCKVSNKALPAPIEKTISKAKGQPREPQVYTLPPCREEMTKNQVSLSCAVKGFYPSDIAVEWESNGQPENNYKTTPPVLDSDGSFFLVSKLTVDKSRWQQGNVFSCSVMHEALHNHYTQKSLSLSPGK
For B2, the “EC50 (read off the curve)” value [3] was ~2 nM and the “EC50 (read off the curve)” value [4] was ~2 nM.

B3: AZD9592 (bispecific antibody, human IgG1, kappa, lambda)
anti-EGFR heavy chain: QVQLVQSGAEVKKPGSSVKVSCKASGGTFSDNDFSWVRQAPGQGLEWMGAIVAVFRTETYAQKFQDRVKITADISTRTTYMELSSLRSEDTAVYYCARRLMSAISGPGAPLLMWGQGTLVTVSSASTKGPSVCPLAPSSKSTSGGTAALGCLVKDYFPEPVTVSWNSGALTSGVHTFPAVLQSSGLYSLSSVVTVPSSSLGTQTYICNVNHKPSNTKVDKRVEPKSVDKTHTCPPCPAPEFEGGPSVFLFPPKPKDTLMISRTPEVTCVVVDVSHEDPEVKFNWYVDGVEVHNAKTKPREEQYNSTYRVVSVLTVLHQDWLNGKEYKCKVSNKALPASIEKTISKAKGQPREPQVYTLPPCREEMTKNQVSLWCLVKGFYPSDIAVEWESNGQPENNYKTTPPVLDSDGSFFLYSKLTVDKSRWQQGNVFSCSVMHEALHNHYTQKSLSLSPGK
anti-EGFR light chain: QSALTQPRSVSGSPGQSVTISCTGTSSDVGGYNYVSWYQQHPGKAPKLMIYDVSKRPSGVPDRFSGSKSGNTASLTISGLQAEDEADYYCSSYTSSDTLEIFGGGTKLTVLGQPKAAPSVTLFPPCSEELQANKATLVCLISDFYPGAVTVAWKADSSPVKAGVETTTPSKQSNNKYAASSYLSLTPEQWKSHRSYSCQVTHEGSTVEKTVAPTEVS
anti-cMET heavy chain: QVQLVQSGAEVKKPGASVKVSCKASGYTFTDYYIHWVRQATGQGLEWMGWMNPNSGNTGYAQKFQGRVTMTRDTSISTAYMELSSLRSEDTAVYYCARGQGYTHSWGQGTMVTVSSASTKGPSVFPLAPSSKSTSGGTAALGCLVKDYFPEPVTVSWNSGALTSGVHTFPAVLQSSGLYSLSSVVTVPSSSLGTQTYICNVNHKPSNTKVDKRVEPKSCDKTHTCPPCPAPEFEGGPSVFLFPPKPKDTLMISRTPEVTCVVVDVSHEDPEVKFNWYVDGVEVHNAKTKPREEQYNSTYRVVSVLTVLHQDWLNGKEYKCKVSNKALPASIEKTISKAKGQPREPQVCTLPPSREEMTKNQVSLSCAVKGFYPSDIAVEWESNGQPENNYKTTPPVLDSDGSFFLVSKLTVDKSRWQQGNVFSCSVMHEALHNHYTQKSLSLSPGK
anti-cMET light chain: DIQMTQSPSTLSASVGDRVTITCRASEGIYHWLAWYQQKPGKAPKLLIYKASSLASGVPSRFSGSGSGTEFTLTISSLQPDDFATYYCQQYSNYPPTFGGGTKLEIKRTVAAPSVFIFPPSDEQLKSGTASVVCLLNNFYPREAKVQWKVDNALQSGNSQESVTEQDSKDSTYSLSSTLTLSKADYEKHKVYACEVTHQGLSSPVTKSFNRGEC
In the case of B3, the “EC50 (read off the curve)” value (Human EGFR) is reported as ~1 nM, the “EC50 (read off the curve)” value (Human cMET) is reported as ~0.07 nM and the “EC50 (read off the curve)” value [5] is reported as ~2 nM. The “EC50 (read off the curve)” value [6] was ~2 nM, the “EC50 (read off the curve)” value [7] was ~3 nM and the “EC50 (read off the curve)” value [8] was ~3 nM. The “EC50 (read off the curve)” value [9] was ~10 nM and the “EC50 (read off the curve)” value [10] was ~10 nM.

B4: Onartuzumab (antibody, V domains shown)
VH: EVQLVESGGGLVQPGGSLRLSCAASGYTFTSYWLHWVRQAPGKGLEWVGMIDPSNSDTRFNPNFKDRFTISADTSKNTAYLQMNSLRAEDTAVYYCATYRSYVTPLDYWGQGTLVTVSS
VL: DIQMTQSPSSLSASVGDRVTITCKSSQSLLYTSSQKNYLAWYQQKPGKAPKLLIYWASTRESGVPSRFSGSGSGTDFTLTISSLQPEDFATYYCQQYYAYPWTFGQGTKVEIK
In the case of B4, the “EC50 (read off the curve)” value [11] is reported as ~1 nM, the “EC50 (read off the curve)” value [12] is reported as ~0.7 nM and the “EC50 (read off the curve)” value [13] is reported as ~0.4 nM.
